Values joined by “and” are separate entries in the source; they are usually repeats but may differ in a detail not shown here. Identical values can stand only once.

We go through one substance from paper PMC9361567.

Experiment [1] has as its target KHC + LC (Kinesin-1 HC-LCs complex) (Drosophila) (UniProt P17210). Briefly: BLI. On the technique in general: BLI is a label-free optical method that tracks binding on a fibre tip over time.
Experiment [2] concerns the target KHC^Δh2 + LC (Drosophila) (UniProt P17210). Put plainly: BLI.
Experiment [3] addresses HALO::PLP^584-1811 WT (purified from Sf9) (Drosophila). Put plainly: mass photometry.

For “HALO::PLP^584-1811 WT (purified from Sf9) (domain or fragment)”, the results for the dissociation constant Kd in experiment [1] and in experiment [2] were 1.7 µM and 0.065 µM, respectively. Moreover, the stoichiometry N in experiment [3] is 2 and 4.

By Kd is commonly meant the concentration at which binding is half-saturated. What is called stoichiometry N is the number of molecules, sites or subunits per partner or assembly.
